Experiments:
[1] = system: HeLa Kyoto; test: melting temperature (median over replicates), in situ; higher = more thermally stable
[2] = system: HeLa Kyoto; test: thermal stability score vs G1/S (z-score of summed log2 fold changes over temperatures); higher = more thermally stable than in G1/S
[3] = cell cycle stage: early G1 (4.5 h after nocodazole release)
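For melting temperature (median over replicates), in situ in this document: HeLa Kyoto cells synchronized by double thymidine or nocodazole block, proteins quantified by TMT10plex mass spectrometry, three independent biological replicates.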
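For thermal stability score vs G1/S (z-score of summed log2 fold changes over temperatures) in this document: synchronized HeLa Kyoto cells, proteins quantified by TMT10plex mass spectrometry, three biological replicates, mitosis taken 0.5 h after nocodazole release, G1/S directly after double thymidine block.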

Row | Substance | melting temperature ([1]; cell cycle stage: G1/S) | thermal stability score [2, 3] | thermal stability score ([2]; cell cycle stage: mitosis) | melting temperature ([1]; cell cycle stage: mitosis)
1 | MKSVIYHALSQKEANDSDVQPSGAQRAEAFVRAFLKRSTPRMSPQAREDQLQRKAVVLEYFTRHKRKEKKKKAKGLSARQRRELRLFDIKPEQQRYSLFLPLHELWKQYIRDLCSGLKPDTQPQMIQAKLLKADLHGAIISVTKSKCPSYVGITGILLQETKHIFKIITKEDRLKVIPKLNCVFTVETDGFISYIYGSKFQLRSSERSAKKFKAKGTIDL [POP4] | 52.4 °C | -1.07 | -2.15 | 
2 | MTSALENYINRTVAVITSDGRMIVGTLKGFDQTINLILDESHERVFSSSQGVEQVVLGLYIVRGDNVAVIGEIDEETDSALDLGNIRAEPLNSVAH [LSM8] | 57.1 °C | -1.46 | -3.54 | 57.5 °C
3 | ITM2B | 55.2 °C | 5.19 | 0.613 | 54.7 °C
4 | MWRWIRQQLGFDPPHQSDTRTIYVANRFPQNGLYTPQKFIDNRIISSKYTVWNFVPKNLFEQFRRVANFYFLIIFLVQLMIDTPTSPVTSGLPLFFVITVTAIKQGYEDWLRHNSDNEVNGAPVYVVRSGGLVKTRSKNIRVGDIVRIAKDEIFPADLVLLSSDRLDGSCHVTTASLDGETNLKTHVAVPETALLQTVANLDTLVAVIECQQPEADLYRFMGRMIITQQMEEIVRPLGPESLLLRGARLKNTKEIFGVAVYTGMETKMALNYKSKSQKRSAVEKSMNTFLIIYLVILISEAVISTILKYTWQAEEKWDEPWYNQKTEHQRNSSKILRFISDFLAFLVLYNFIIPISLYVTVEMQKFLGSFFIGWDLDLYHEESDQKAQVNTSDLNEELGQVEYVFTDKTGTLTENEMQFRECSINGMKYQEINGRLVPEGPTPDSSEGNLSYLSSLSHLNNLSHLTTSSSFRTSPENETELIKEHDLFFKAVSLCHTVQISNVQTDCTGDGPWQSNLAPSQLEYYASSPDEKALVEAAARIGIVFIGNSEETMEVKTLGKLERYKLLHILEFDSDRRRMSVIVQAPSGEKLLFAKGAESSILPKCIGGEIEKTRIHVDEFALKGLRTLCIAYRKFTSKEYEEIDKRIFEARTALQQREEKLAAVFQFIEKDLILLGATAVEDRLQDKVRETIEALRMAGIKVWVLTGDKHETAVSVSLSCGHFHRTMNILELINQKSDSECAEQLRQLARRITEDHVIQHGLVVDGTSLSLALREHEKLFMEVCRNCSAVLCCRMAPLQKAKVIRLIKISPEKPITLAVGDGANDVSMIQEAHVGIGIMGKEGRQAARNSDYAIARFKFLSKLLFVHGHFYYIRIATLVQYFFYKNVCFITPQFLYQFYCLFSQQTLYDSVYLTLYNICFTSLPILIYSLLEQHVDPHVLQNKPTLYRDISKNRLLSIKTFLYWTILGFSHAFIFFFGSYLLIGKDTSLLGNGQMFGNWTFGTLVFTVMVITVTVKMALETHFWTWINHLVTWGSIIFYFVFSLFYGGILWPFLGSQNMYFVFIQLLSSGSAWFAIILMVVTCLFLDIIKKVFDRHLHPTSTEKAQLTETNAGIKCLDSMCCFPEGEAACASVGRMLERVIGRCSPTHISRSWSASDPFYTNDRSILTLSTMDSSTC [ATP11B] | 57.4 °C | -2.25 | -0.924 | 55.5 °C
5 | MAMWNRPCQRLPQQPLVAEPTAEGEPHLPTGRELTEANRFAYAALCGISLSQLFPEPEHSSFCTEFMAGLVQWLELSEAVLPTMTAFASGLGGEGADVFVQILLKDPILKDDPTVITQDLLSFSLKDGHYDARARVLVCHMTSLLQVPLEELDVLEEMFLESLKEIKEEESEMAEASRKKKENRRKWKRYLLIGLATVGGGTVIGVTGGLAAPLVAAGAATIIGSAGAAALGSAAGIAIMTSLFGAAGAGLTGYKMKKRVGAIEEFTFLPLTEGRQLHITIAVTGWLASGKYRTFSAPWAALAHSREQYCLAWEAKYLMELGNALETILSGLANMVAQEALKYTVLSGIVAALTWPASLLSVANVIDNPWGVCLHRSAEVGKHLAHILLSRQQGRRPVTLIGFSLGARVIYFCLQEMAQEKDCQGIIEDVILLGAPVEGEAKHWEPFRKVVSGRIINGYCRGDWLLSFVYRTSSVQLRVAGLQPVLLQDRRVENVDLTSVVSGHLDYAKQMDAILKAVGIRTKPGWDEKGLLLAPGCLPSEEPRQAAAAASSGETPHQVGQTQGPISGDTSKLAMSTDPSQAQVPVGLDQSEGASLPAAASPERPPICSHGMDPNPLGCPDCACKTQGPSTGLD [TMCO4] |  | -0.364 | 0.512 | 53.7 °C
6 | MQPPPPGPLGDCLRDWEDLQQDFQNIQETHRLYRLKLEELTKLQNNCTSSITRQKKRLQELALALKKCKPSLPAEAEGAAQELENQMKERQGLFFDMEAYLPKKNGLYLSLVLGNVNVTLLSKQAKFAYKDEYEKFKLYLTIILILISFTCRFLLNSRVTDAAFNFLLVWYYCTLTIRESILINNGSRIKGWWVFHHYVSTFLSGVMLTWPDGLMYQKFRNQFLSFSMYQSFVQFLQYYYQSGCLYRLRALGERHTMDLTVEGFQSWMWRGLTFLLPFLFFGHFWQLFNALTLFNLAQDPQCKEWQVLMCGFPFLLLFLGNFFTTLRVVHHKFHSQRHGSKKD [TMPIT] | 54.2 °C |  |  | 53.4 °C
7 | KIF1B | 50.5 °C |  |  | 52.2 °C
8 | MASKTKASEALKVVARCRPLSRKEEAAGHEQILTMDVKLGQVTLRNPRAAPGELPKTFTFDAVYDASSKQADLYDETVRPLIDSVLQGFNGTVFAYGQTGTGKTYTMQGTWVEPELRGVIPNAFEHIFTHISRSQNQQYLVRASYLEIYQEEIRDLLSKEPGKRLELKENPETGVYIKDLSSFVTKNVKEIEHVMNLGNQTRAVGSTHMNEVSSRSHAIFIITVECSERGSDGQDHIRVGKLNLVDLAGSERQNKAGPNTAGGAATPSSGGGGGGGGSGGGAGGERPKEASKINLSLSALGNVIAALAGNRSTHIPYRDSKLTRLLQDSLGGNAKTIMVATLGPASHSYDESLSTLRFANRAKNIKNKPRVNEDPKDTLLREFQEEIARLKAQLEKRGMLGKRPRRKSSRRKKAVSAPPGYPEGPVIEAWVAEEEDDNNNNHRPPQPILESALEKNMENYLQEQKERLEEEKAAIQDDRSLVSEEKQKLLEEKEKMLEDLRREQQATELLAAKYKAMESKLLIGGRNIMDHTNEQQKMLELKRQEIAEQKRREREMQQEMMLRDEETMELRGTYTSLQQEVEVKTKKLKKLYAKLQAVKAEIQDQHDEYIRVRQDLEEAQNEQTRELKLKYLIIENFIPPEEKNKIMNRLFLDCEEEQWKFQPLVPAGVSSSQMKKRPTSAVGYKRPISQYARVAMAMGSHPRYRAENIMFLELDVSPPAVFEMEFSHDQEQDPRALHMERLMRLDSFLERPSTSKVRKSRSWCQSPQRPPPSTTHASLASASLRPATVADHE [KIF3C] |  |  |  | 50.4 °C
9 | MAGYEYVSPEQLAGFDKYKYSAVDTNPLSLYVMHPFWNTIVKVFPTWLAPNLITFSGFLLVVFNFLLMAYFDPDFYASAPGHKHVPDWVWIVVGILNFVAYTLDGVDGKQARRTNSSTPLGELFDHGLDSWSCVYFVVTVYSIFGRGSTGVSVFVLYLLLWVVLFSFILSHWEKYNTGILFLPWGYDISQVTISFVYIVTAVVGVEAWYEPFLFNFLYRDLFTAMIIGCALCVTLPMSLLNFFRSYKNNTLKLNSVYEAMVPLFSPCLLFILSTAWILWSPSDILELHPRVFYFMVGTAFANSTCQLIVCQMSSTRCPTLNWLLVPLFLVVLVVNLGVASYVESILLYTLTTAFTLAHIHYGVRVVKQLSSHFQIYPFSLRKPNSDULGMEEKNIGL [EPT1] | 52.8 °C |  |  | 

Reference: the supplement of paper PMC5998384
